Data as given in publication PMC11915804, “In situ structures of the contractile nanomachine myophage Mu in both its extended and contracted states” (Journal of Virology, 2025).

B1: baseplate wedge protein 3 (BW3) gp48 (natural protein, phage Mu, UniProt Q9T1V1 1-180, looked up)
chain: MAVTPWQTAFLQLLPSGLAWNKSPDSKLSALAQAISDVIATAADDARQMLRERFPSTSRWYLGEWESFLGLPDCTSENGTLSERQRAAANKMRMTGNLSRRFYEWLAAQYGFTVRLTDSTEGQWVTQVNIYGIKNYRNATVLDNVLTPLRVYESGALECLLEKYKPAHQIYKFVYHDGDN
notes: baseplate wedge protein 3 gp48 of myophage Mu, as it stands in the virion; One copy in each of the six wedges; Model deposited here; source: phage Mu virions grown on E. coli (ATCC 23724), purified (PEG 8000/NaCl precipitation, CsCl gradient)

Assays:
Assay in all cases: cryo-EM structure; purified phage Mu virions in the extended state (native phage) in phage buffer (10 mM MgCl2, 5 mM NaCl, 10 mM Tris-HCl, pH 7.4); icosahedral, symmetry-mismatch and local reconstruction; 3.2 Å (3-fold capsid), 3.4 Å (portal-adaptor), 3.5 Å (terminator-tail), 3.3 Å (baseplate)
[1] = target: T1, baseplate wedge protein 2 (BW2) gp47 (phage Mu, UniProt Q9T1V2 1-360); conditions: both partners purified
T1 construct: baseplate wedge protein 2 gp47 of myophage Mu, as it stands in the virion; Two conformers (BW2-i, BW2-o) in each of the six wedges; Model deposited here; also called BW2-i; BW2-o; source: phage Mu virions grown on E. coli (ATCC 23724), purified (PEG 8000/NaCl precipitation, CsCl gradient)
T1 sequence (looked up): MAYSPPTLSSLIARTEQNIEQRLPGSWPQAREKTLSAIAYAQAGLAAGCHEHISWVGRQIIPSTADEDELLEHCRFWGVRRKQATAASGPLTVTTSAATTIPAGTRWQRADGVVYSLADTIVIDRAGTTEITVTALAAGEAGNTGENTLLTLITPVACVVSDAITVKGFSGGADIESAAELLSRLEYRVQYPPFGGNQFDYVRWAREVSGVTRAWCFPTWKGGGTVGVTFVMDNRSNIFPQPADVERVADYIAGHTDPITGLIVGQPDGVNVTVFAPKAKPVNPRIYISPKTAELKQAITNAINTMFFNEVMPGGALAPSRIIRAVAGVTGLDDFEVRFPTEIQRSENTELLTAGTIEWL

[2] = target: T2, G(+) type fiber protein gp49 (phage Mu, UniProt Q9T1V0 1-504); conditions: both partners purified
T2 construct: G(+) type tail fiber protein gp49 of myophage Mu, as it stands in the virion; only the N-terminus was modelled; Trimer; six fibers in the baseplate; Model deposited here; source: phage Mu virions grown on E. coli (ATCC 23724), purified (PEG 8000/NaCl precipitation, CsCl gradient)
T2 sequence (looked up): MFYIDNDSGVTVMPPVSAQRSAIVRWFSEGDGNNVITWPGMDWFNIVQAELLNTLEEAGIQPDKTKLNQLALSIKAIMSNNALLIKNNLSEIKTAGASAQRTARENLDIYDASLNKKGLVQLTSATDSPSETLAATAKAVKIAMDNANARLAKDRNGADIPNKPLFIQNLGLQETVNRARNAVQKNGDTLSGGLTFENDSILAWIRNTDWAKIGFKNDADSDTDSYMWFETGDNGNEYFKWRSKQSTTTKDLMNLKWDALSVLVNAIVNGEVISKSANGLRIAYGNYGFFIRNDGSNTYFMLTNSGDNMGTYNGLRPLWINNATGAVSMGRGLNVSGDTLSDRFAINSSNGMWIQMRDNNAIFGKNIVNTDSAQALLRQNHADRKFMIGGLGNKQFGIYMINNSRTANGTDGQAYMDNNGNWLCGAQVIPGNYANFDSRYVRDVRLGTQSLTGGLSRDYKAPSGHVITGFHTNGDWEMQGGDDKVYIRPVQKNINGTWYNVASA

[3] = target: T3, tube initiator protein gp43 (phage Mu, UniProt P08557 1-495); conditions: both partners purified
T3 construct: tube initiator protein gp43 (N protein, DNA circularization protein) of myophage Mu, as it stands in the virion; Hexamer; Model deposited here; also called N protein; DNA circularization protein; source: phage Mu virions grown on E. coli (ATCC 23724), purified (PEG 8000/NaCl precipitation, CsCl gradient)
T3 sequence (looked up): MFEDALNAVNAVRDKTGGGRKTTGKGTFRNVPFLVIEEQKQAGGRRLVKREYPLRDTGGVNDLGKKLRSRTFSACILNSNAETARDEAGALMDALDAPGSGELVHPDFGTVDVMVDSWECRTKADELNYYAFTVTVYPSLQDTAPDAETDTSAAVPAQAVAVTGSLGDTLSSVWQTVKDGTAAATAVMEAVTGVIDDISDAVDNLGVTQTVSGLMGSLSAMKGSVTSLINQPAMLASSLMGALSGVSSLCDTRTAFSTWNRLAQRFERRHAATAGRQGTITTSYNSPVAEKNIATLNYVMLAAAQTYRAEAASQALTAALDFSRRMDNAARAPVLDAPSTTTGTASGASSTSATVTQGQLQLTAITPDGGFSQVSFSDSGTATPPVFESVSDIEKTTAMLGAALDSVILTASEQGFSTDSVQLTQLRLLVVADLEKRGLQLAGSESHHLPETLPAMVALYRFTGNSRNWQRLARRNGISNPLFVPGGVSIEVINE

[4] = target: T4, tail sheath protein gp39 (phage Mu, UniProt P79678 1-495); conditions: both partners purified
T4 construct: tail sheath protein gp39 of myophage Mu, as it stands in the virion; Hexameric rings, 30 of them stacked in the tail; Model deposited here; source: phage Mu virions grown on E. coli (ATCC 23724), purified (PEG 8000/NaCl precipitation, CsCl gradient)
T4 sequence (looked up): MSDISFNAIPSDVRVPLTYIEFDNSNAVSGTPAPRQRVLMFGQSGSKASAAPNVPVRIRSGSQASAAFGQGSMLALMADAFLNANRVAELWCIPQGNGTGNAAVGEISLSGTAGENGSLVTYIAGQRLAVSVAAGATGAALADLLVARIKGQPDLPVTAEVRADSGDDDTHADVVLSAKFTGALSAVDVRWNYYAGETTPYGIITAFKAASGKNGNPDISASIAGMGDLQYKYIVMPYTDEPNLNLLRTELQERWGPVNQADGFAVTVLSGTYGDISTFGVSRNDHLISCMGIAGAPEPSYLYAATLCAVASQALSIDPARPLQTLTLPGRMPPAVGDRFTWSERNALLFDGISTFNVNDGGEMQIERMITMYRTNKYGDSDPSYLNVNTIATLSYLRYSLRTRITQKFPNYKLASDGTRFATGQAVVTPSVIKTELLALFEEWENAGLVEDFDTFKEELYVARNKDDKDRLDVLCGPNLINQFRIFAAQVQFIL

[5] = target: B1; conditions: both partners purified
[6] = target: T5, hub protein gp44 (phage Mu, UniProt P08558 1-379); conditions: both partners purified
T5 construct: baseplate hub protein gp44 of myophage Mu, as it stands in the virion; Trimer; Model deposited here; source: phage Mu virions grown on E. coli (ATCC 23724), purified (PEG 8000/NaCl precipitation, CsCl gradient)
T5 sequence (looked up): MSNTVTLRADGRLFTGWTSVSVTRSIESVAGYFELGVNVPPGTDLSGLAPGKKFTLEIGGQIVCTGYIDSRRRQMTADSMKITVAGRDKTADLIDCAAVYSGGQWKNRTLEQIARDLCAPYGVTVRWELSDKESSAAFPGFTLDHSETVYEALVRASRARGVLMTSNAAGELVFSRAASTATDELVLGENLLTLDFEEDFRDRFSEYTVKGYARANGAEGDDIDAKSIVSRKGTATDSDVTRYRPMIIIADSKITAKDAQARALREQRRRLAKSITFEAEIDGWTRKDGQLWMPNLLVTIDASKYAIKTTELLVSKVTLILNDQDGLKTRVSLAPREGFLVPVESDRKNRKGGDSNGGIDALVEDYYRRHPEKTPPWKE

[7] = target: the molecule itself

Row | Binder | binding result [1] | binding result [2] | binding result [3] | binding result [4] | binding result [5] | binding result [6] | stoichiometry N [7]
1 | B1 | binds | binds | binds |  |  |  | 
2 | baseplate wedge protein 1 (BW1) gp46 (natural protein, phage Mu, UniProt Q9T1V3 1-145, looked up, baseplate wedge protein 1 gp46 of myophage Mu, as it stands in the virion; One copy in each of the six wedges; Model deposited here; source: phage Mu virions grown on E. coli (ATCC 23724), purified (PEG 8000/NaCl precipitation, CsCl gradient)) MTDLAIIWTNGRGDIAQDGIDMLTDDSLTTDVTISLFTDRRALDSDTLPDGSDDRRGWWGDSYRDRPIGSRLWLLSREKATPDTLERARGYAEEALEWLKTAGRVSAINVRAEQLHQGWLYLYIALTLPDGSVIPYEFKAAFNGV | binds |  | binds | binds | binds |  | 
3 | spike protein gp45 (natural protein, phage Mu, UniProt Q9T1V4 1-197, looked up, baseplate spike protein gp45 of myophage Mu, as it stands in the virion; Trimer; Model deposited here; source: phage Mu virions grown on E. coli (ATCC 23724), purified (PEG 8000/NaCl precipitation, CsCl gradient)) MERVNDSALNRLLTPLMRRVRLMLARAVVNVINDGRKVQNLQVGLLDDEESDEVERLQNYGHFSVPLPGAEALIACVGAQRDQGIAVVVEDRRYRPTNLEPGDAGIYHHEGHRIRLTKDGRCIITCKTVEVYADESMTVDTPRTTFTGDVEIQKGLGVKGKSQFDSNITAPDAIINGKSTDKHIHRGDSGGTTGPMQ |  |  |  |  |  | binds | 3
